Paper PMC2704394 (2009)

B1: full length S. pombe Pik1, wild type [S. pombe] / purified Cdc4 protein [S. pombe] (parent complex)
chain 1: MPSSNSGNELLLRFFESAHFTSQLCVAYLSRYPNNIGIHHFLCEKLATFPYEEIEFFIPQLIHLVLNKDSESVALEEFIISQCEQNTQCALITFWYLQAHMVDLGLQPHSSCFKICKRLYNRIQILVFMSSSSLIQSQQKISENVTPALILSGIMLGGVCVPELLKKAGPIAIAQGRKAPRQDPDESDVDVLRRLSTEPRYSLDVLRSSLNNSIVEQHSEVSLRLKAPELTRTHSYQSSATLSIDEQRRVLRSNYFQQEIQFLFALQDISIRLIIVPRQARLSSLRAELALLNNNLPADVNIPLLRSYHKEVSHKIVRIDPKEATILNSAERVPYLIMVEVLSGELSFEPQSKKNKAKVQKIVSHKNQRKRWFDLTDVDPYTNLQDSTDNDISESESEGGDLSMSPLIKGLVPDTLSLSKSFSSFGNVSLQVPSSHRDTDVVLLSGRHSDSDGNGALKRSKIYASEITARMRAAATMLSQLDAEGSRRPKAETERIKNSIILDMQRLEEERLNEPSIYPVSVDISCAEDLRFGKETQKAERKGDRDDPSAATFQEDWYAKKERIRKSSPYGHYPNWDLVSVIVKTGADLRQETFACQLIYAFQRVWLECKEKVWVRRMKILVTGDNSGLIETITNAISVHSIKKNLTKQLREAELAQGKIAGKNVVTLKDYFIKQFGDPNSSRYRQAQTNFLQSLVAYSIISYLLQLKDRHNGNVLIDSEGHIIHIDFGFLLTNTPGNVGFESAPFKLTADYLEILDDRFDEYRSLMKAAFKSVRKNADQIILLVEVMQNNSTMPCFRAGENTSAQLLQRFQLQLGDKECDDFVDLLIQKANCSVWTRLYDLFQNITNGIY
chain 2: MSTDDSPYKQAFSLFDRHGTGRIPKTSIGDLLRACGQNPTLAEITEIESTLPAEVDMEQFLQVLNRPNGFDMPGDPEEFVKGFQVFDKDATGMIGVGELRYVLTSLGEKLSNEEMDELLKGVPVKDGMVNYHDFVQMILAN

Variants of: B1
Assay: sandwich ELISA; about 56 µg lysate protein (highest point of 2-fold serial dilution); cells grown in the absence of thiamine; Cdc4-coated wells; parent: 0.27; read off a plot

Variant	response
chain 1 R838A	~0.027 Absorbance
